The values below are quoted from earlier work in publication PMC4070439.

In data set [1] the target is IL-12Rβ1 (low affinity site) (Mus musculus) (UniProt Q60837).
Data set [2] addresses IL-12Rβ1 (high affinity site) (Mus musculus) (UniProt Q60837).

Turning to “IL-12 p40 homodimer (from UniProt P43432)”, the Kd is 15 nM in data set [1] and 0.005 nM in data set [2].
